We go through 1 molecule from patent publication US10894811B2, “Peptide inhibitors of calcium channels” (The University of North Carolina at Chapel Hill, priority 2016, dated 2021).

Entries after “also recorded” stand apart in the source; their conditions may differ.

Experiment [1] concerns the target T1, Orai1 (Homo sapiens, UniProt Q96D31). As to the kind of experiment: Surface biotinylation / immunoblot of plasma membrane Orai1. The class given is cell-based. As to conditions: ASMC, after 4 h of SPLUNC1 exposure. The method, then: Surface biotinylation: hASMCs were treated with or without SPLUNC1 for 4 h. Cells were then washed with prechilled PBS^++ (phosphate buffered saline supplemented with 1 mM CaCl2 and 1 mM MgCl2), and then labeled with 0.5 mg/ml sulfo-NHS-biotin (Thermo) in borate buffer (85 mM NaCl, 4 mM KCl, 15 mM Na2B4O7, pH 9.0) while tumbling gently for 30 min on ice. hASMCs were incubated in PBS^++ buffer supplemented with 10% FBS for 20 min at 4° C. to quench free biotin. Cells were washed again three times with chilled PBS^++ and proteins were extracted as previously using lysis buffer (0.4% sodium deoxycholate, 1% NP-40, 50 mM EGTA, 10 mM Tris-Cl, pH 7.4) supplemented with 1×PIC. Total inputs were taken from whole cell samples representing 4% of total protein. Solubilized proteins were incubated with 100 μl of neutravidin beads (Pierce) overnight while rotating at 4° C. Samples were washed three times with lysis buffer. Bead-bound proteins were then eluted and SDS-polyacrylamide gels, and subjected to immunoblot analysis.

In the next experiment the test system is Human ASMCs. As to the kind of experiment: Cell contraction assay (collagen gel). The class given is cell-based. As to conditions: pre-incubation with recombinant SPLUNC1; with or without Ach; 60 min. The protocol: Cell contraction assay: The cell contraction assay was performed using a standard commercially available kit (Cell Biolabs). Human ASMCs were harvested and re-suspended in DMEM, two parts of cells were mixed with eight parts of collagen gel lattice mixture and plated for 1 h at 37° C. After the gel solidified, 1 ml of medium was added and incubated for 48 h. Next the gels were released from the sides of wells, and the images were taken using a ChemiDoc™ MP imager (BioRad) at 0 and 1 h after adding indicated reagents. The changes of collagen gel surface areas were analyzed using ImageJ software and normalized to areas of gels at 0 time point.

Experiment [2] has as its target T1, Orai1. As to the kind of experiment: Surface labeling and ground state depletion super resolution microscopy. As to conditions: ASMC plasma membranes, after 1 h incubation. On the set-up: expressed in transfected cells. The format is cell-based. The method, then:
Surface labeling and super resolution microscopy: Human ASMs were grown on 22×22 mm^2 glass coverslips and transfected with the HA-Orai1. 24 h after transfection, cells were fixed with 4% paraformaldehyde (PFA) in PBS, followed by surface labeling with mouse anti-HA antibody (BioLegend) and Alexa 488 goat anti mouse antibody (Life Technologies) at 4° C. After washing with ice cold PBS for five times, cells were incubated with 5 μM SPLUNC1-DyLight 594 for 1 h at 4° C. prior to imaging.
Prior to mounting, 90 μl of oxygen depleting medium, β-Mercaptoethylamine (MEA) was added to the cavity of depression slides. Coverslips were then mounted on the depression slides and sealed with twinsil (Picodent). Super resolution images were captured with a commercial LEICA GSD super-resolution microscope. Ground state depletion (GSD) was performed using 488 nm and 642 nm m solid-state lasers. Samples were excited using 488 nm and 642 nm lasers and sample acquisition was increased with back-pumping using the 405 nm laser as per the manufacturer's instructions. The microscope was fitted with a 160× oil-immersion objective lens.

In experiment [3] the test system is myosin light chain (MLC) phosphorylation. The experiment in a line: Immunoblot of phosphorylated myosin light chain in ASMCs. The format is cell-based, human. As to conditions: basal and Ach-induced; pre-treatment with SPLUNC1. The protocol:
Antibodies, immunoprecipitation, and immunoblot analysis: Rabbit anti-Orai1, anti-HA epitope (Santa Cruz), anti-GFP, anti-phospho-myosin light chain, anti-total myosin light chain, anti-GAPDH (glyceraldehyde-3-phosphate dehydrogenase) (Cell Signaling Technology); mouse anti-V5 epitope (Life Technologies), were purchased from commercial sources. To detect protein expression in total cell lysates, cells were lysed in Pierce® IP lysis buffer with 25 mM Tris-HCl pH 7.4, 150 mM NaCl, 1% NP-40, 1 mM EDTA, 5% glycerol, followed by SDS-polyacrylamide electrophoresis and immunoblot.
For orientation: Immunoblotting shows a protein as a band on a membrane.

A further experiment deals with hASMCs. The experiment in a line: Calcium imaging using fura-2 (thapsigargin-induced Ca2+ signaling). The format is cell-based, human. The protocol: Calcium imaging: Calcium imaging using fura-2 was adapted from a previous published protocol with minor modifications (Sheridan et al., J. Biol. Chem. 288:33509 (2013)). Briefly, hASMCs were loaded with 2 μM fura-2 AM (Invitrogen) and serosal media from HBEC cultures or recombinant SPLUNC1 at 37° C. for 1 h. Cultures were washed with a standard Ringer's solution (101 mM NaCl, 12 mM NaHCO3, 1.2 mM MgCl2, 1.2 mM CaCl2, […], 24 mM HEPES, 10 mM glucose, pH 7.4) or with Ca^2+-free Ringer's solution as indicated. Cultures were then placed in the Ringer's solution, and images were collected with a 40×1.4 NA oil objective on a Nikon Ti-S inverted microscope. Fura-2 fluorescence was acquired alternately at 340 and 380 nm (emission >450 nm) using LUDL filter wheels, obtained with an Orca FLASH 4.0 CMOS camera (Hammamatsu), and controlled with HCImageLive software. Cell bodies were identified as individual regions of interest (ROIs). Background subtraction was performed using a region without the cell. Signals were converted to relative changes (F/F0) where F0 was the ratio of the average fluorescent intensity (340/380) of ROIs at 0 time point. A total of 20 cells/coverslip were recorded. ΔF/F0 represents average peak fluorescent intensity changes of three independent experiments.

In experiment [4] the target is T1, Orai1. As to the kind of experiment: Fluorescent (confocal) microscopy of Orai1 localization. Also noted: expressed in transfected cells. The format is cell-based. As to conditions: ASMC treated with SPLUNC1. The protocol: Fluorescent microscopy: Human ASMs were grown on 25-mm glass coverslips for fluorescent imaging. Cells were transfected with the indicated fluorescent-labeled proteins. At 24 h post-transfection, cells were incubated with or without SPLUNC1 for 4 h, followed by methanol fixation and DAPI (1 μg/ml) staining for nucleus. For live cell imaging, cells were grown on 35-mm glass-bottom dishes (In Vivo Scientific) and transfected with the YFP-Orai1. At 24 h post-transfection, cells were incubated with SPLUNC1 and images were taken at indicated time point. All images were taken with a Leica TCS SP8 63× oil lens using the Leica Application Suite X software (Leica).

T1 sequence (Q96D31 whole entry): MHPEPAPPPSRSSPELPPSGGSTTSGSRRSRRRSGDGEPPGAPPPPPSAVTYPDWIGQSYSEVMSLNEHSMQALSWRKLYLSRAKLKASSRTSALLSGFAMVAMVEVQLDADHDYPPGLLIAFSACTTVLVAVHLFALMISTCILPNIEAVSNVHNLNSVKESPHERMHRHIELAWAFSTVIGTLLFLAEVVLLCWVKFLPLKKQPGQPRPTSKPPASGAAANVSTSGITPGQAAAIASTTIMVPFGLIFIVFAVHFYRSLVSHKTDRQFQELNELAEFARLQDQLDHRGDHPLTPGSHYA

B1: SPLUNC1: Short palate, lung and nasal epithelium clone 1, recombinant full length protein (protein, listed as Homo sapiens)
chain: MFQTGGLIVFYGLLAQTMAQFGGLPVPLDQTLPLNVNPALPLSPTGLAGSLTNALSNGLLSGGLLGILENLPLLDILKPGGGTSGGLLGGLLGKVTSVIPGLNNIIDIKVTDPQLLELGLVQSPDGHRLYVTIPLGIKLQVNTPLVGASLLRLAVKLDITAEILAVRDKQERIHLVLGDCTHSPGSLQISLLDGLGPLPIQGLLDSLTGILNKVLPELVQGNVCPLVNEVLRGLDITLVHDIVNMLIHGLQFVIKV
Consider B1, for which, in the experiment with Orai1 [1], the “decrease of plasma membrane Orai1 levels” value is reported as roughly 50%. Besides, the “ASMC contraction in collagen matrix (decrease in gel surface area)” value in the experiment with Human ASMCs was “significantly reduced; also recorded: decreases airway smooth muscle (ASM) contractility”. For the same molecule, the “co-localization of SPLUNC1 and Orai1” value with Orai1 [2] was “co-localize in ASMC plasma membranes”. Further, the MLC phosphorylation result in experiment [3] is “decreased both basal and induced MLC phosphorylation; also recorded: suppressing myosin light chain (MLC) phosphorylation; also recorded: decreases MLC phosphorylation in dose dependent-manners”. For the same molecule, the “ability of SPLUNC1 to inhibit Ca2+ signaling” value with hASMCs (ASMC with Orai1 knocked down by shRNA, TG) was “lost”. Moreover, in the experiment with hASMCs (ASMCs pre-incubated with truncated SPLUNC1 peptides (FIG. 4H)), the “ability to suppress Ca2+ signaling, SPLUNC1 mutants/peptides” value is “Inhibition was not different”. The “SR Ca2+ release” value in the experiment on hASMCs (TG without extracellular Ca2+ (EGTA), pre-treatment with SPLUNC1) was “no effect”. In addition, the “thapsigargin (TG)-induced Ca2+ flux (peak fura-2 ratio change)” value in the experiment on hASMCs (human ASMCs, co-incubated 1 h) is given as “significantly reduced; also recorded: inhibits TG induced cytosolic Ca^2+ increases in a dose-dependent manner; also recorded: suppresses cytosolic Ca^2+ elevation in the presence of TG”. Further, the “SOCE (store operated Ca2+ influx)” value in the experiment with hASMCs (reintroduction of extracellular Ca2+ after TG, pre-treatment with SPLUNC1) was “significantly suppressed; also recorded: blocks store operated Ca^2+ influx in ASMCs”. In addition, the “cytosolic Orai1 / Orai1 internalization” value with Orai1 [4] is “increased; also recorded: Orai1 is internalized”.
